Reference: patent US20230406935A1 (F STAR THERAPEUTICS, published 2023)
Changes are numbered by the printed parent chain.

B1: Fcab FS17-33-116 with LALA mutation (designed binder)
chain: TCPPCPAPEAAGGPSVFLFPPKPKDTLMISRTPEVTCVVVDVSHEDPEVKFNWYVDGVEVHNAKTKPREEQYNSTYRVVSVLTVLHQDWLNGKEYKCKVSNKALPAPIEKTISKAKGQPREPQVYTLPPSRDESGYWVSLTCLVKGFYPSDIVVEWESNGEPQYWAKTTPPVLDSDGSFFLYSKLTVSNWRWQMDDFSCSVMHEALHNHYTQKSLSLSPGK
B2: Fcab FS17-33-289 with LALA mutation (designed binder)
chain: B1 chain with M194L
B3: Fcab FS17-33-334 with LALA mutation (designed binder)
chain: B1 chain with V153A, M194L
B4: Fcab FS17-33-288 with LALA mutation (designed binder)
chain: B1 chain with M194I
B5: Fcab FS17-33-296 with LALA mutation (designed binder)
chain: B1 chain with M194V
B6: Fcab FS17-33-289 (designed binder)
chain: B1 chain with A10L, A11L, M194L
B7: Fcab FS17-33-296 (designed binder)
chain: B1 chain with A10L, A11L, M194V
B8: FS17-33-289AA/HelD1.3 mock mAb^2 (bispecific antibody, human IgG1, kappa, L234A L235A)
heavy: QVQLQESGPGLVRPSQTLSLTCTVSGSTFSGYGVNWVRQPPGRGLEWIGMIWGDGNTDYNSALKSRVTMLVDTSKNQFSLRLSSVTAADTAVYYCARERDYRLDYWGQGSLVTVSSASTKGPSVFPLAPSSKSTSGGTAALGCLVKDYFPEPVTVSWNSGALTSGVHTFPAVLQSSGLYSLSSVVTVPSSSLGTQTYICNVNHKPSNTKVDKKVEPKSCDKTHTCPPCPAPEAAGGPSVFLFPPKPKDTLMISRTPEVTCVVVDVSHEDPEVKFNWYVDGVEVHNAKTKPREEQYNSTYRVVSVLTVLHQDWLNGKEYKCKVSNKALPAPIEKTISKAKGQPREPQVYTLPPSRDESGYWVSLTCLVKGFYPSDIVVEWESNGEPQYWAKTTPPVLDSDGSFFLYSKLTVSNWRWQLDDFSCSVMHEALHNHYTQKSLSLSPGK
light: DIQMTQSPASLSASVGETVTITCRASGNIHNYLAWYQQKQGKSPQLLVYNAKTLADGVPSRFSGSGSGTQYSLKINSLQPEDFGSYYCQHFWSTPRTFGGGTKLEIKRTVAAPSVFIFPPSDEQLKSGTASVVCLLNNFYPREAKVQWKVDNALQSGNSQESVTEQDSKDSTYSLSSTLTLSKADYEKHKVYACEVTHQGLSSPVTKSFNRGEC
notes: also called F17-33-289AA/HelD1.3; F17-33-289AA/HELD1.3
B9: FS17-33-289/HelD1.3 mock mAb^2 (without LALA) (bispecific antibody, human IgG1, kappa)
heavy: B8 heavy with A233L, A234L
light: B8 light
B10: FS17-33-451/HelD1.3 mock mAb^2 (without LALA) (bispecific antibody, human IgG1, kappa)
heavy: QVQLQESGPGLVRPSQTLSLTCTVSGSTFSGYGVNWVRQPPGRGLEWIGMIWGDGNTDYNSALKSRVTMLVDTSKNQFSLRLSSVTAADTAVYYCARERDYRLDYWGQGSLVTVSSASTKGPSVFPLAPSSKSTSGGTAALGCLVKDYFPEPVTVSWNSGALTSGVHTFPAVLQSSGLYSLSSVVTVPSSSLGTQTYICNVNHKPSNTKVDKKVEPKSCDKTHTCPPCPAPELLGGPSVFLFPPKPKDTLMISRTPEVTCVVVDVSHEDPEVKFNWYVDGVEVHNAKTKPREEQYNSTYRVVSVLTVLHQDWLNGKEYKCKVSNKALPAPIEKTISKAKGQPREPQVYTLPPSRDEEGYWVSLTCLVKGFYPSDIAVEWESNGEPQYWAKTTPPVLDSDGSFFLYSKLTVSNWRWQLDDVFSCSVMHEALHNHYTQKSLSLSPGK
light: B8 light
B11: FS17-33-449/HelD1.3 mock mAb^2 (without LALA) (bispecific antibody, human IgG1, kappa)
heavy: B10 heavy with E357T
light: B8 light
B12: FS17-33-296/HelD1.3 mock mAb^2 (without LALA) (bispecific antibody, human IgG1, kappa)
heavy: B8 heavy with A233L, A234L, L417V
light: B8 light
B13: FS17-33-449AA/HelD1.3 mock mAb^2 (bispecific antibody, human IgG1, kappa, L234A L235A)
heavy: B10 heavy with L233A, L234A, E357T
light: B8 light
B14: FS17-33-296AA/HelD1.3 mock mAb^2 (bispecific antibody, human IgG1, kappa, L234A L235A)
heavy: B8 heavy with L417V
light: B8 light
notes: also called F17-33-296AA/HelD1.3; F17-33-296AA/HELD1.3
B15: FS17-33-288AA/HelD1.3 mock mAb^2 (bispecific antibody, human IgG1, kappa, L234A L235A)
heavy: B8 heavy with L417I
light: B8 light
notes: also called F17-33-288AA/HelD1.3; F17-33-288AA/HELD1.3
B16: FS17-33-451AA/HelD1.3 mock mAb^2 (bispecific antibody, human IgG1, kappa, L234A L235A)
heavy: B10 heavy with L233A, L234A
light: B8 light
notes: also called F17-33-451AA/HelD1.3; F17-33-451AA/HELD1.3
B17: FS17-33-334AA/HelD1.3 mock mAb^2 (bispecific antibody, human IgG1, kappa, L234A L235A)
heavy: B8 heavy with V376A
light: B8 light
B18: FS17-33-451AA/MSL109 mock mAb^2 (bispecific antibody, human IgG1, kappa, L234A L235A)
heavy: EEQVLESGGGLVKPGGSLRLSCAASGFTFSPYSVFWVRQAPGKGLEWVSSINSDSTYKYYADSVKGRFTISRDNAENSIFLQMNSLRAEDTAVYYCARDRSYYAFSSGSLSDYYYGLDVWGQGTTVIVSSASTKGPSVFPLAPSSKSTSGGTAALGCLVKDYFPEPVTVSWNSGALTSGVHTFPAVLQSSGLYSLSSVVTVPSSSLGTQTYICNVNHKPSNTKVDKKVEPKSCDKTHTCPPCPAPEAAGGPSVFLFPPKPKDTLMISRTPEVTCVVVDVSHEDPEVKFNWYVDGVEVHNAKTKPREEQYNSTYRVVSVLTVLHQDWLNGKEYKCKVSNKALPAPIEKTISKAKGQPREPQVYTLPPSRDEEGYWVSLTCLVKGFYPSDIAVEWESNGEPQYWAKTTPPVLDSDGSFFLYSKLTVSNWRWQLDDVFSCSVMHEALHNHYTQKSLSLSPGK
light: DIVMTQSPLSLSVTPGEPASISCRSSQSLLHTNGYNYLDWYVQKPGQSPQLLIYLASNRASGVPDRFSGSGSGTDFTLKISRVETEDVGVYYCMQALQIPRTFGQGTKVEIKRTVAAPSVFIFPPSDEQLKSGTASVVCLLNNFYPREAKVQWKVDNALQSGNSQESVTEQDSKDSTYSLSSTLTLSKADYEKHKVYACEVTHQGLSSPVTKSFNRGEC
notes: also called FS17-33-451AA/MSL109 (parent 2)
B19: FS17-33-548AA/MSL109 (bispecific antibody, human IgG1, kappa, L234A L235A)
heavy: B18 heavy with D432G
light: B18 light
B20: FS17-33-539AA/MSL109 (bispecific antibody, human IgG1, kappa, L234A L235A)
heavy: B18 heavy with E371T, D432G, H445R
light: B18 light
B21: Fcab FS17-33-116 (designed binder)
chain: B1 chain with A10L, A11L

molecular target: T1, Human PD-L1 expressed on cells (human, UniProt Q9NZQ7 19-290); experiment: cell-based or functional assay
T1 sequence (Q9NZQ7 19-290 limits assumed): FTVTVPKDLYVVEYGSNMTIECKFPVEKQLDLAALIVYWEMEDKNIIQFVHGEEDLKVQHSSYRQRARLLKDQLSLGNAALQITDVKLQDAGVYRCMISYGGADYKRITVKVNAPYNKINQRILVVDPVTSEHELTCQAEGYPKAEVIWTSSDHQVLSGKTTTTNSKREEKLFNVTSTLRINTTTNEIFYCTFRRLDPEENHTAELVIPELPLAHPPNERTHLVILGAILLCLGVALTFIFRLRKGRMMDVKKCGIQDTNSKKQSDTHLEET

Binder | SEB assay (IFNγ release) EC50
B1 | 0.1 nM
B2 | 0.108 nM
B3 | 0.144 nM
B4 | 0.0899 nM
B5 | 0.124 nM
B6 | 0.0886 nM
B7 | 0.0869 nM
B8 | 0.566 nM
B9 | 0.969 nM
B10 | 0.852 nM
B11 | 0.644 nM
B12 | 1.71 nM
B13 | 0.55 nM
B14 | 1.77 nM
B15 | 1.02 nM
B16 | 1.12 nM
B17 | 0.761 nM

molecular target: T1, Human PD-L1 expressed on cells; experiment: cell-based or functional assay; remark: another data set of the same source

Binder | SEB EC50
B18 | 1.11 nM
B19 | 3.21 nM
B20 | 0.97 nM

molecular target: T1, Human PD-L1 expressed on cells; experiment: cell-based or functional assay; remark: another data set of the same source

Binder | SEB assay EC50
B21 | 0.0753 nM
